Laboratory results published in PMC5503513, “Tandem hnRNP A1 RNA recognition motifs act in concert to repress the splicing of survival motor neuron exon 7”.

Key:
hnRNP A1 RRM2 R140A [1] = target: T1, hnRNP A1 RRM2 R140A (UniProt P09651 95-196, R140A); assay: ITC; range, no saturation; ITC: 10 mM NaPi pH 6.5, 10 mM 2-mercaptoethanol, 30 C, protein titrated into RNA; NMR: 10 mM NaPi pH 6.5, 1 mM DTT (303 K stated for UP1-R140A:ISS-N1-u25g); details: protein: recombinant; single strand
hnRNP A1 RRM1 [2] = target: T2, hnRNP A1 RRM1 (UniProt P09651 2-97); assay: as above; details: protein: recombinant; single strand
T2 sequence (P09651 2-97): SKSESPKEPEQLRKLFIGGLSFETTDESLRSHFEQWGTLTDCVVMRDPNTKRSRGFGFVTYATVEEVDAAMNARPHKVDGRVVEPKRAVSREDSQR

hnRNP A1 RRM2 E176Q = hnRNP A1 RRM2 E176Q (UniProt P09651 95-196, E176Q); assay: ITC; ITC: 10 mM NaPi pH 6.5, 10 mM 2-mercaptoethanol, 30 C, protein titrated into RNA; NMR: 10 mM NaPi pH 6.5, 1 mM DTT (303 K stated for UP1-R140A:ISS-N1-u25g); details: protein: recombinant; single strand
Chain of hnRNP A1 RRM2 E176Q (P09651 95-196 E176Q): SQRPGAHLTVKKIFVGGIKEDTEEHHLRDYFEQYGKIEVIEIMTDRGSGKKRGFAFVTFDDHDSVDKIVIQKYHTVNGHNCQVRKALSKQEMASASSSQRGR

hnRNP A1 RRM2 [3] = target: T3, hnRNP A1 RRM2 (UniProt P09651 95-196); assay: as above; details: protein: recombinant; single strand
T3 sequence (P09651 95-196): as the sequence (P09651 95-196 E176Q) above, with Q82E counted along it

UP1 r1R2 = UP1 r1R2 (UniProt P09651 1-196, F17A;F59A); assay: as above; details: protein: recombinant; single strand
Chain of UP1 r1R2 (P09651 1-196 F17A/F59A): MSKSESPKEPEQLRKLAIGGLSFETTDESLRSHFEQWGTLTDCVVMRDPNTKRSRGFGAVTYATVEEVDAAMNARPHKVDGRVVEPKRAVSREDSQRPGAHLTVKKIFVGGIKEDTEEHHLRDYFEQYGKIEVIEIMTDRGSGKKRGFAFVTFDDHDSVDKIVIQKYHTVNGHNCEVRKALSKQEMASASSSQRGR

hnRNP A1 UP1 R1r2 [4] = target: hnRNP A1 UP1 R1r2 (Homo sapiens, UniProt P09651 2-196, F108A;F150A); assay: ITC; 10 mM sodium phosphate pH 6.5, 10 mM 2-mercaptoethanol, no added salt, 30 C; RNA 5-10 uM in the cell; 1:1 fit; details: extra N-terminal Gly-Gly in PDB 2LYV (left out)
Chain of hnRNP A1 UP1 R1r2 (P09651 2-196 F108A/F150A): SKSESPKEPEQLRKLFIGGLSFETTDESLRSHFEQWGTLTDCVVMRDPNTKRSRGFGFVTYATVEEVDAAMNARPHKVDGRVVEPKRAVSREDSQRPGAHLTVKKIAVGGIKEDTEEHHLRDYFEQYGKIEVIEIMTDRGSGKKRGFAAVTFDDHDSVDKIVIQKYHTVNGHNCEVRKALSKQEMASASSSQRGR

hnRNP A1 RRM2 R140A [5] = target: T1, hnRNP A1 RRM2 R140A; assay: as above; details: none in PDB 5MPL
hnRNP A1 UP1 r1R2 [6] = target: hnRNP A1 UP1 r1R2 (Homo sapiens, UniProt P09651 2-196, F17A;F59A); assay: as above; details: extra N-terminal Gly-Gly in PDB 2LYV (left out)
Chain of hnRNP A1 UP1 r1R2 (P09651 2-196 F17A/F59A): as the sequence (P09651 2-196 F108A/F150A) above, with F16A, F58A, A107F, A149F counted along it

hnRNP A1 RRM1 [7] = target: T2, hnRNP A1 RRM1; assay: as above; details: one extra N-terminal Ala in PDB 5MPG (left out)
hnRNP A1 RRM1 [8] = target: T2, hnRNP A1 RRM1; assay: NMR titration; intermediate exchange; ITC: 10 mM NaPi pH 6.5, 10 mM 2-mercaptoethanol, 30 C, protein titrated into RNA; NMR: 10 mM NaPi pH 6.5, 1 mM DTT (303 K stated for UP1-R140A:ISS-N1-u25g); details: protein: recombinant; single strand
UP1 [9] = target: T4, UP1 (UniProt P09651 1-196); assay: NMR PRE; 1:1 complex; ITC: 10 mM NaPi pH 6.5, 10 mM 2-mercaptoethanol, 30 C, protein titrated into RNA; NMR: 10 mM NaPi pH 6.5, 1 mM DTT (303 K stated for UP1-R140A:ISS-N1-u25g); details: protein: recombinant; label: IA-proxyl spin label on s4U18; single strand
T4 sequence (P09651 1-196): as the sequence (P09651 1-196 F17A/F59A) above, with A17F, A59F counted along it

UP1 R140A [10] = target: T5, UP1 R140A (UniProt P09651 1-196, R140A); assay: as above; details: protein: recombinant; label: IA-proxyl spin label on s4U18; single strand
T5 sequence (P09651 1-196 R140A): as the sequence (P09651 1-196 F17A/F59A) above, with A17F, A59F, R140A counted along it

UP1 R140A [11] = target: T5, UP1 R140A; assay: NMR titration; 1 equivalent RNA; ITC: 10 mM NaPi pH 6.5, 10 mM 2-mercaptoethanol, 30 C, protein titrated into RNA; NMR: 10 mM NaPi pH 6.5, 1 mM DTT (303 K stated for UP1-R140A:ISS-N1-u25g); details: protein: recombinant; single strand
UP1 [12] = target: T4, UP1; assay: NMR titration; intermediate exchange, both RRMs; ITC: 10 mM NaPi pH 6.5, 10 mM 2-mercaptoethanol, 30 C, protein titrated into RNA; NMR: 10 mM NaPi pH 6.5, 1 mM DTT (303 K stated for UP1-R140A:ISS-N1-u25g); details: protein: recombinant; single strand
hnRNP A1 RRM2 [13] = target: T3, hnRNP A1 RRM2; assay: NMR titration; fast exchange; ITC: 10 mM NaPi pH 6.5, 10 mM 2-mercaptoethanol, 30 C, protein titrated into RNA; NMR: 10 mM NaPi pH 6.5, 1 mM DTT (303 K stated for UP1-R140A:ISS-N1-u25g); details: protein: recombinant; single strand
hnRNP A1 RRM1 [14] = target: T2, hnRNP A1 RRM1; assay: as above; details: protein: recombinant; single strand
UP1 R140A [15] = target: T5, UP1 R140A; assay: NMR (intermolecular NOEs, structural model); 1:1 complex; RRM2 on 5' motif, RRM1 on 3' motif; ITC: 10 mM NaPi pH 6.5, 10 mM 2-mercaptoethanol, 30 C, protein titrated into RNA; NMR: 10 mM NaPi pH 6.5, 1 mM DTT (303 K stated for UP1-R140A:ISS-N1-u25g); details: protein: recombinant; single strand
hnRNP A1 RRM2 R140A [16] = target: T1, hnRNP A1 RRM2 R140A; assay: ITC; ITC: 10 mM NaPi pH 6.5, 10 mM 2-mercaptoethanol, 30 C, protein titrated into RNA; NMR: 10 mM NaPi pH 6.5, 1 mM DTT (303 K stated for UP1-R140A:ISS-N1-u25g); details: protein: recombinant; single strand
hnRNP A1 RRM1 [17] = target: T2, hnRNP A1 RRM1; assay: as above; details: protein: recombinant; single strand
hnRNP A1 RRM1 F23A = hnRNP A1 RRM1 F23A (UniProt P09651 2-97, F23A); assay: as above; details: protein: recombinant; single strand
Chain of hnRNP A1 RRM1 F23A (P09651 2-97 F23A): as the sequence (P09651 2-97) above, with F22A counted along it

UP1 [18] = target: T4, UP1; assay: NMR titration; broad lines; ITC: 10 mM NaPi pH 6.5, 10 mM 2-mercaptoethanol, 30 C, protein titrated into RNA; NMR: 10 mM NaPi pH 6.5, 1 mM DTT (303 K stated for UP1-R140A:ISS-N1-u25g); details: protein: recombinant; single strand
hnRNP A1 RRM2 Y167F = hnRNP A1 RRM2 Y167F (UniProt P09651 95-196, Y167F); assay: ITC; ITC: 10 mM NaPi pH 6.5, 10 mM 2-mercaptoethanol, 30 C, protein titrated into RNA; NMR: 10 mM NaPi pH 6.5, 1 mM DTT (303 K stated for UP1-R140A:ISS-N1-u25g); details: protein: recombinant; single strand
Chain of hnRNP A1 RRM2 Y167F (P09651 95-196 Y167F): as the sequence (P09651 95-196 E176Q) above, with Y73F, Q82E counted along it

hnRNP A1 RRM2 M186A = hnRNP A1 RRM2 M186A (UniProt P09651 95-196, M186A); assay: ITC; 10 mM sodium phosphate pH 6.5, 10 mM 2-mercaptoethanol, no added salt, 30 C; RNA 5-10 uM in the cell; 1:1 fit; details: none in PDB 5MPL
Chain of hnRNP A1 RRM2 M186A (P09651 95-196 M186A): as the sequence (P09651 95-196 E176Q) above, with Q82E, M92A counted along it

T1 sequence (P09651 95-196 R140A): as the sequence (P09651 95-196 E176Q) above, with R46A, Q82E counted along it

For UGAGUU (ssRNA), the Kd (hnRNP A1 RRM2 R140A [1]) was ~2240 nM, the Kd (hnRNP A1 RRM1 [2]) was ~5200 nM and the Kd (hnRNP A1 RRM2 E176Q) was 324 ± 20 nM. The Kd (hnRNP A1 RRM2 [3]) was 546 ± 31 nM, the Kd (UP1 r1R2) was 625 ± 41 nM and the Kd (hnRNP A1 UP1 R1r2 [4]) was 654 ± 50 nM. The Kd (hnRNP A1 RRM2 R140A [5]) was ~2650 nM, the Kd (hnRNP A1 UP1 r1R2 [6]) was 625 ± 41 nM and the Kd (hnRNP A1 RRM1 [7]) was ~3450 nM.

CGUAGGU (ssRNA): binds (hnRNP A1 RRM1 [8]).

ACCAGCAUUAUGAAAGGUA (XNA, 4-thio-U at position 18) [modified ISS-N1 (spin-labeled)]: binds (UP1 [9]); binds (UP1 R140A [10]).

GGACCAGCAUUAUGAAAGUGA (ssRNA) [ISS-N1 WT]: binds (UP1 R140A [11]); binds (UP1 [12]).

UGAAAGU (ssRNA): binds (hnRNP A1 RRM2 [13]); binds (hnRNP A1 RRM1 [14]).

UUUUAGGU (ssRNA): binds (hnRNP A1 RRM1 [8]).

GGACCAGGAUUAUGAAAGUGC (ssRNA) [ISS-N1-c14g]: binds (UP1 R140A [11]).

GGACCAGCAUUAUGAAAGGGA (ssRNA) [ISS-N1-u25g]: binds (UP1 R140A [15]).

UCAGGUC (ssRNA) was tested, and the Kd (hnRNP A1 RRM2 E176Q) was 132 ± 29 nM, the Kd (hnRNP A1 RRM2 R140A [16]) was 862 ± 47 nM and the Kd (hnRNP A1 RRM2 [3]) was 129 ± 11 nM. For the same binder, the Kd (hnRNP A1 RRM1 [17]) was 543 ± 33 nM, the Kd (UP1 r1R2) was 178 ± 11 nM and the Kd (hnRNP A1 UP1 R1r2 [4]) was 171 ± 12 nM. It also gave a Kd (hnRNP A1 RRM2 R140A [5]) of 862 ± 47 nM and a Kd (hnRNP A1 UP1 r1R2 [6]) of 178 ± 11 nM.

UCAGGG (ssRNA): binds (hnRNP A1 RRM2 [13]).

UUAGGGA (ssRNA): binds (hnRNP A1 RRM2 [13]); binds (hnRNP A1 RRM1 [14]).

Binder UUUUAGGUC (ssRNA) has a Kd (hnRNP A1 RRM1 F23A) of 130 ± 8 nM and a Kd (hnRNP A1 RRM1 [17]) of 159 ± 9 nM.

UAGGUC (ssRNA) was tested, and the Kd (hnRNP A1 RRM2 E176Q) was 227 ± 14 nM, the Kd (hnRNP A1 RRM2 R140A [16]) was 685 ± 40 nM and the Kd (hnRNP A1 RRM2 [3]) was 98 ± 8 nM. The Kd (hnRNP A1 RRM1 F23A) was 602 ± 34 nM, the Kd (hnRNP A1 RRM1 [17]) was 625 ± 35 nM and the Kd (hnRNP A1 RRM2 R140A [5]) was 685 ± 40 nM.

CAGCAU (ssRNA): binds (hnRNP A1 RRM2 [13]); binds (hnRNP A1 RRM1 [14]).

With UAAGUU (ssRNA) the Kd (hnRNP A1 RRM2 R140A [1]) was ~2240 nM, the Kd (hnRNP A1 RRM1 [2]) was ~5200 nM and the Kd (hnRNP A1 RRM2 E176Q) was 429 ± 27 nM. It also gave a Kd (hnRNP A1 RRM2 [3]) of 543 ± 31 nM, a Kd (UP1 r1R2) of 685 ± 42 nM and a Kd (hnRNP A1 UP1 R1r2 [4]) of 658 ± 44 nM. It also gave a Kd (hnRNP A1 RRM2 R140A [5]) of ~3300 nM, a Kd (hnRNP A1 UP1 r1R2 [6]) of 685 ± 42 nM and a Kd (hnRNP A1 RRM1 [7]) of ~4610 nM.

GGACCAGGAUUAUGAAAGGGC (ssRNA) [ISS-N1-14g25g]: binds (UP1 R140A [11]); binds (UP1 [18]).

Work on UCAGUU (ssRNA) yielded a Kd (hnRNP A1 RRM2 R140A [1]) of ~2240 nM, a Kd (hnRNP A1 RRM2 E176Q) of 237 ± 15 nM and a Kd (hnRNP A1 RRM2 Y167F) of 513 ± 30 nM. It also gave a Kd (hnRNP A1 RRM2 [3]) of 541 ± 33 nM, a Kd (UP1 r1R2) of 637 ± 39 nM and a Kd (hnRNP A1 UP1 R1r2 [4]) of 578 ± 40 nM. It also gave a Kd (hnRNP A1 RRM2 M186A) of 1630 nM, a Kd (hnRNP A1 RRM2 R140A [5]) of ~2490 nM and a Kd (hnRNP A1 UP1 r1R2 [6]) of 637 ± 39 nM. For the same binder, the Kd (hnRNP A1 RRM1 [7]) was > 10000 nM.
